Data reported in paper PMC549571.
Like-named read-outs stand apart in the source and are kept apart here.

B1: non-telomeric mixed (MXT/MXB) (dsDNA)
DNA 1: GTGGATCCGTACGATGGTTTTAGGTGAACACGAATTCGA
DNA 2: TCGAATTCGTGTTCACCTAAAACCATCGTACGGATCCAC
B2: CTRL (dsDNA)
DNA 1: GTGGATCCGTACTTAGGGTTAGGGTTAACACGAATTCGA
DNA 2: TCGAATTCGTGTTAACCCTAACCCTAAGTACGGATCCAC
B3: 8oxoG3 (dsDNA)
DNA 1: B2 DNA 1
DNA 2: B2 DNA 2
modifications: 8-oxoG at positions 16, 17, 18 of strand 1
B4: 8oxoG2 (dsDNA)
DNA 1: B2 DNA 1
DNA 2: B2 DNA 2
modifications: 8-oxoG at positions 17, 18 of strand 1
B5: 8oxoG1 (dsDNA)
DNA 1: B2 DNA 1
DNA 2: B2 DNA 2
modifications: 8-oxoG at position 17 of strand 1
B6: 8oxoG1-1 (dsDNA)
DNA 1: B2 DNA 1
DNA 2: B2 DNA 2
modifications: 8-oxoG at positions 17, 23 of strand 1

Key:
Assay in all cases: EMSA
TRF2ΔN [1] = biological target: T1, TRF2ΔN (Homo sapiens, UniProt Q15554 87-542)
T1 sequence (Q15554 87-542, stated change not applied): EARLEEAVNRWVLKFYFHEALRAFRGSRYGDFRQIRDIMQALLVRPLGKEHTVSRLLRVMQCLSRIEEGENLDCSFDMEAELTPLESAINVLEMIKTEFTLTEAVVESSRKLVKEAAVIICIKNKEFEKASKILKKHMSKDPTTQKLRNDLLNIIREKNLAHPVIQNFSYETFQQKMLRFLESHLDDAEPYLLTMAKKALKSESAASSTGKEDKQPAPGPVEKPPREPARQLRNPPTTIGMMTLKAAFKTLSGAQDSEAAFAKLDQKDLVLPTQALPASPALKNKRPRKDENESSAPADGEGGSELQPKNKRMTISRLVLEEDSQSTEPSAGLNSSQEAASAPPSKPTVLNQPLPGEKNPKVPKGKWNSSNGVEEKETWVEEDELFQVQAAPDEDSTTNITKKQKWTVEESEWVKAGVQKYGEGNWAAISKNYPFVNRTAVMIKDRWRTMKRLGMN

TRF1 [2] = biological target: T2, TRF1 (Homo sapiens, UniProt P54274 1-439)
T2 sequence (P54274 whole entry): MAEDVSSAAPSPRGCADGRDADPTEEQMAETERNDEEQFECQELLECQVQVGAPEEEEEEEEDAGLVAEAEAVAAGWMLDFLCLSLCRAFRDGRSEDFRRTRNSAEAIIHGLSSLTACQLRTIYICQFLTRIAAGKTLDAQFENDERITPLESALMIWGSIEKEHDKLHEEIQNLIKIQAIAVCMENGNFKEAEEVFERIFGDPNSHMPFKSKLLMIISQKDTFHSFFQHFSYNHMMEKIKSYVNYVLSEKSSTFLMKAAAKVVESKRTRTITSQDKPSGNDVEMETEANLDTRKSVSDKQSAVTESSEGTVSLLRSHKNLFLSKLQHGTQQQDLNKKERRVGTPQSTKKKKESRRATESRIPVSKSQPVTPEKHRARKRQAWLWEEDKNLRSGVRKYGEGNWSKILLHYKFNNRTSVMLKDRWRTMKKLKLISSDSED

TRF2ΔN [3] = biological target: T1, TRF2ΔN; remark: listed apart in the source
TRF1 [4] = biological target: T2, TRF1; remark: listed apart in the source
TRF1 [5] = biological target: T2, TRF1; remark: listed apart in the source

Binder	binding signal (TRF2ΔN [3]) [% bound at 100 nM TRF2ΔN]	binding signal (TRF1 [4])	also measured
B1	–	–	binding result (TRF2ΔN [1]): no binding; binding result (TRF1 [2]): no binding
B2	55	61 ± 6 % bound at 25 nM TRF1	–
B3	–	21 fold decrease in % bound vs control at 25 nM TRF1	–
B4	17	29 ± 2 % bound at 25 nM TRF1	–
B5	11	31 ± 6 % bound at 25 nM TRF1	–
B6	–	–	binding signal (TRF1 [5]): 18 fold decrease in % bound vs control at 25 nM TRF1
